# Source: the RNAGym collection of RNA variant scans (doi:10.1073/pnas.2313332121)
# B1: TPR t1 (parent)
# chain: GACCAAUCUGCCCUCAGAGCUCGAGAACAUCUUCGGAUGCAGAGGAGGCAGGCUUCGGUGGCGCGAUAGCGCCAACGUCCUCAACCUCCAAUGCAUCCCACCACAUGAUGAUGCCUGAAGAGCCUUGGUUUUUUG
# Variants of: B1
# Test: polymerase ribozyme fitness, log enrichment relative to wild type (log ratio); higher = more active; in vitro selection for triplet polymerase activity
# In short: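 Frozen incubation at −7 °C formed the core of a single, triplicate in vitro selection round applied to PCR-built, transcribed mutant libraries of each subunit of a heterodimeric triplet polymerase ribozyme. Extended constructs were gel-excised, captured with streptavidin beads and amplified by RT-PCR, and input and output libraries were Illumina-sequenced with a filter of ≥10 input reads and ≥1 read per output. Fitness is the logarithm of genotype enrichment relative to wild-type enrichment, with inverse-variance-weighted replicate averaging, and the logarithm is base 2.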
row,Variant,polymerase ribozyme fitness (log ratio)
1,GACCAAUCUGCGCUCAGAGCUCGAGUACAUCUUCGGAUGCAGAGUAGGCAGGCUUCGGUGGCGCGAUAGCGCCAACGUCCUCAACCUCCAAUGCAUCCCACCACAAGAUGAUGCCUGAAGAGCCUUUGUUUUUUG [C12G A26U G45U U106A G127U],-4.14
2,GACCAAUCUGCGCUCAGAGCUCGAGAACAUCUUCGGAUGCAGAGGGGGCAGGGUUCGGUGGCGCGAUAGCGCCAACGUCCUCAACCUCCAAUGCGUCCCACCACAUGAUGAUGCCUGAGGAGCCUUGGUUUUUUG [C12G A46G C53G A95G A119G],0.414
3,GACCAAUCUGCGCUUAGAGCUCGAGAACAUCUUCGGAUGCAGAGGAGGCAGGCUUCGGUGGAGCGAUAGCGCCAACGUCCUCAACCUCCAAUGCAUCCCACCACAUGAUGAUGCCUGAAGAGCCUUGGUUUUUUG [C12G C15U C62A],-1.99
4,GACCAAUCUGCGCUAAGAGCUCGAGAACAUCUUCGGAUUCGGAGGAGGGAGGCUUCGGUGGCGCGAUAGCGCCAACGUCCUCAACCUCCAAUGCAUCCCACCACAUGAUGAUGCCUGAAGAGCCUUGGUUUUUUG [C12G C15A G39U A41G C49G],-4.44
5,GACCAAUCUGCGCUGAGAGCUCGAGAACAUCUUCGGAUGCAGAGGAGGCAGGCUUCGGUGGCGCGAUAGCGCCAACGUCCUCAACCUCCAAUGCAUCCCACCACAUGAUGAUGCCUGAAGAGUCUUGGUUUUUUG [C12G C15G C123U],-1.81
6,GACCAAUCUGCGCUCAGAGCUCGAGAACAUCUUCGGAUGCAGAGGUGGAAGGCUUCGGUGGCGCGAUAGCGCCAACGUCCUCAACCUCCAAUGCAUCCCACCACAUGAUGAUGCCUGAAGAGCCUUGGUUUUUUG [C12G A46U C49A],-1.36
7,GACCAAUCUGCGCUCAGAGCUCGAGAGCAUCUUCGGAUGCAGAGGAGGCAGGCUUCGGUGGCGCGAUGGCGCCAACGUCCUCAACCUCCAAUGCAUCCCACCACAUGAUGAUGCCUGAAGAGCCUUGGUUUUUUG [C12G A27G A68G],-4.94
8,GACCAAUCUGCGCUCAGAGCUCGAGAACUUCUUCGGAUGCAGAGGAGGCAGGCUUCGGUGGCGCGAUAGCGCCAACGUCCUCAACCUCCAAUGCAUCCCACCACAUGAUGAUGCCUGAAGAGCCUUGGUUUUUUG [C12G A29U],-1.54
9,GACCAAUCUGCGCUCAGAGCUCGAGAACCUCUUCGGAUGCAGAGGAGGCAGGCUUCGGUGGCGCGAUAGCGCCAACGUCCUCAACCUCCAAUGCAUCCCACCACAUGAUGAUGCCUGAAGAGCCUUGGUUUUUUG [C12G A29C],-1.57
10,GACCAAUCUGCGCUCAGAGCUCGAGCACAUCUUCGGAUGCAGAGGAGGCAGGCUUCGGUUGCGCGAUAGCGCCAACGUCCUCAACCUCCAAUGCAUCCCACCACAUGAUGAUGCCUGAAGUGCAUUGGUUGUUUG [C12G A26C G60U A121U C124A U131G],-3.72
11,GACCAAUCUGCGCUCAGUGCUCGAGAACAUCUUCGGAUGCAGAGGAGGCAGGCUUCGGUGGCGCGAUAGCGCCAACGUCCUCAACCUCCAAUGCAUCCCACCACAUGAUGAUGCCUGAAGAGCCUUGGUUUUUUG [C12G A18U],-1.46
12,GACCAAUCUGCGCUCAGAGCUCGAGAACAUCUUCGGAUGCAGAGGAGGCAGGCUUCGGUGGCGCGAUAGCGCCAACGUCCUCCACCUCCAAUGCAUCCCACCACAUGAUGAUGCCUGAAGAGCCUUGGUUUUUUG [C12G A83C],-1.43
13,GACCAAUCUGCGCUCAGAGCUCGAGAACAUCUUCGGAUGCAGUGGAGGCAGGCUUCGGUGGCGCGAUAGGGCCAACGUCCUCAACCUCCAAUGCAUCCCACCACAUGAUGAUGCCUGAAGAGCGUUGGUUUUUUG [C12G A43U C70G C124G],-4.85
14,GACCAAUCUGCGCUCAGAGCUCGAGAACAUCUUCGGAUGCAGUGGAGGCAGGCUUCGGUGGCGCGAUAGAGCCAACGUUCUAAACCUCCAAUGCAACCCACCACAUGAUGAUGCCUGAAGAGCCUUGGUUUUUUG [C12G A43U C70A C79U C82A U96A],-5.11
15,GACCAAUCUGCGCUCAGAGCUCGAGAACAUCUUCGGAUGCAGGGGAGGCAGGCUUCGGUGGCGCGAUAGCGCCAACGUACUCAACCUCCAAUGCAUCCCACCACAUGAUGAAGCCUCAAGAGCCUUGGUUUUUUG [C12G A43G C79A U112A G117C],-4.33
16,GACCAAUCUGCGCUGAGAGCUCGAGAACAUCUUCGGAUGCAGAGGAGGCAUGCUUCGGUGGCGCGAUAGCGCAAACGUCCUCAACCUCCAAUGCAUCCCACCACAUGAUGAUGCCUUAAGAGCCUUGGUUUUUUG [C12G C15G G51U C73A G117U],-2.07
17,GACCAAUCUGCGCUCAGAGCUCGAGAACAUCUUCGGAUGCAGAGGAGGCAGGCUUCGGUGGCGCGAUAGCGCCAACGUCCUCAACCUCCAAUGCAUCCCCCCACAUGAUGAUGCCUGAAGAGCCUUGGUUUUUUG [C12G A100C],-0.741
18,GACCAAUCUGCGCUCAGAGCUCGAGAACAUCUUCGGAUGCAGAGGCGGCAGGCUUCGGUGGCGCGAUAGCGCCAACGUCCUCAACCUCCAAUGCAUCCCACCACAUGAUGAUGCCUGAAGAGCCUUGGUUUUUUG [C12G A46C],-1.55
19,GACCAAUCUGCGCUCAGAGCUCGAGAACAUCUUCGGAUGCAGAGGAGGCAGGCUUCGGUGGCGCGAUAGCGCCAACGUCCUCAACCUCCAAUGCAUCCCCCCACAUGAUGAUUCCUGAAGAGCCUUGGUUUUUUG [C12G A100C G113U],-5.35
20,GACCAAUCUGCGUUCAGAUCUCGAGAACAUCUUCGGAUGCAGACGAGGCAGGCUUCGGUGGCGCGAUAGCGCAAACGUCCUCAACCUCCAAUACAUCCCACCACAUGAUGAUGCCUGAAGAGCCUUGGUUUUUUG [C12G C13U G19U G44C C73A G93A],-4.75
21,GACCAAUCUGCGCUCAGAGCUCGGGAACAUCUUCGGAUGCUGAGGAGGCAGGCUUCCGUGGCGCGAUAGCGCCAACGUCCUCAACCUCCAAUGCAUCCCACCACAUGAUAAUGCCUGAAGAGCCUUGGUUUUUUG [C12G A24G A41U G57C G110A],-5.76
